B1: wild-type FICD (amino acid residues 104-445) [human] / itself (parent)
chain: LEARAALNQALEMKRQGKREKAQKLFMHALKMDPDFVDALTEFGIFSEEDKDIIQADYLYTRALTISPYHEKALVNRDRTLPLVEEIDQRYFSIIDSKVKKVMSIPKGNSALRRVMEETYYHHIYHTVAIEGNTLTLSEIRHILETRYAVPGKSLEEQNEVIGMHAAMKYINTTLVSRIGSVTISDVLEIHRRVLGYVDPVEAGRFRTTQVLVGHHIPPHPQDVEKQMQEFVQWLNSEEAMNLHPVEFAALAHYKLVYIHPFIDGNGRTSRLLMNLILMQAGYPPITIRKEQRSDYYHVLEAANEGDVRPFIRFIAKCTETTLDTLLFATTEYSVALPEAQP

In this assay the parent is B1. As to the kind of experiment: size-exclusion chromatography (peak elution time vs protein concentration, monomer-dimer association fit). Particulars: with itself; non-oxidised protein; parent: 55 nM.
On to LEARAALNQALEMKRQGKREKAQKLFMHALKMDPDFVDALTEFGIFSEEDKDIIQADYLYTRALTISPYHEKALVNRDRTLPLVEEIDQRYFSIIDSKVKKVMSIPKGNSALRRVMEETYYHHIYHTVAIEGNTLTLSEIRHILETRYCVPGKSLEEQNEVIGMHAAMKYINTTLVSRIGSVTISDVLEIHRRVLGYVDPVEAGRFRTTQVLVGHHIPPHPQDVEKQMQEFVQWLNSEEAMNLHPVEFAALAHYKLVYIHPFIDGNGRTSRLLMNLILMQAGYPPITIRKEQRSDYYHVLEAANEGDVRPFIRFIAKSTETTLDTLLFATTEYSVALPEAQP [chain 1 A149C C318S], for which the Kd amounted to 831 nM.

The values are drawn from publication PMC6826200.
